Source: paper PMC7948970

What was measured:
Test in all cases: SEC; analytical gel filtration on an XBridge BEH SEC 200 Å 3.5 μm column; molecular weight estimated from a standard curve (thyroglobulin, immunoglobin, BSA, myoglobulin)
[1] = target: Staphylococcus aureus oleate hydratase (OhyA) (Staphylococcus aureus)
[2] = target: Staphylococcus aureus oleate hydratase OhyA(E82A) (Staphylococcus aureus)
[3] = target: Staphylococcus aureus oleate hydratase OhyA(Y201F) (Staphylococcus aureus)

Substance: Staphylococcus aureus oleate hydratase (OhyA) (enzyme)
- stoichiometry N [1]: 2

Substance: Staphylococcus aureus oleate hydratase OhyA(E82A) (enzyme)
- stoichiometry N [2]: 2

Substance: Staphylococcus aureus oleate hydratase OhyA(Y201F) (enzyme)
- stoichiometry N [3]: 2
